In US20240287168A1 (SHANGHAI JEMINCARE PHARMACEUTICAL, published 2024):
Substitutions are numbered along the chain they refer to. Numbers in names are those of the source.

B1: Ab1910VE18 (expressed single domain antibody with the Ab1910VE9 parent sequence, molecule before affinity maturation) (VHH)
VHH: EVQLVESGGGLVQPGGSLRLSCAASGSTSDIVSMAWYRQAPGKERELVSAVFAEDWRYVEDSVKGRFTISRDNSKNTVYLQMNSLRAEDTAVYYCNVRLRITDERRRERLDYWGQGTLVTVSS
notes: Its theoretical pI (7.5) differs from that of Ab1910VE9 (7), so it is kept apart from Ab1910VE9
B2: Ab1910VE23 (expressed affinity-matured single domain antibody, clone YC43H2) (VHH)
VHH: B1 VHH with T102P, D103H, E104Q, R105W, R107T
B3: Ab1910VE24 (expressed affinity-matured single domain antibody, clone YC43B1) (VHH)
VHH: B1 VHH with E104W, R105Y, R106S
B4: Ab1910VE21 (expressed affinity-matured single domain antibody, clone YC41D1) (VHH)
VHH: B1 VHH with F52L, E54P, D55G, R57S
B5: Ab1910VE9 parental sequence displayed on the surface of yeast (VHH)
VHH: B1 VHH
notes: also called clone number Ab1910VE9
B6: YC43B1, affinity-matured mutant clone of Ab1910VE9 displayed on yeast (VHH)
VHH: B1 VHH with E104W, R105Y, R106S
notes: also called antibody number Ab1910VE24
B7: YC41D1, affinity-matured mutant clone of Ab1910VE9 displayed on yeast (VHH)
VHH: B1 VHH with F52L, E54P, D55G, R57S
notes: also called antibody number Ab1910VE21
B8: YC43H2, affinity-matured mutant clone of Ab1910VE9 displayed on yeast (VHH)
VHH: B1 VHH with T102P, D103H, E104Q, R105W, R107T
notes: also called antibody number Ab1910VE23
B9: Ab1910VE6 (Y20A6 VHH fused with IgG1 Fc N297A; original antibody before humanization) (Fc fusion)
VHH: AVQLVESGGGLVQAGGSARLSCAASGSTSDIVSMAWYRQAPGKERDLVAAVFAEDWRYVEDSVRGRFTISRDNTKNTVDLQMNNLKPEDTAIYYCNVRLRITDERRRERLDYWGQGTQVTVSS
notes: Expressed in ExpiCHO cells; not shown: IgG1 Fc N297A (purchased from Taizhou Biointron Inc.)
B10: Ab1910VE9 (Hz20A6.3 humanized VHH fused with IgG1 Fc N297A) (Fc fusion)
VHH: B1 VHH
notes: as for B9
B11: Ab1910VE8 (Hz20A6.2 humanized VHH fused with IgG1 Fc N297A) (Fc fusion)
VHH: B1 VHH with Q115K, L118T
notes: as for B9
B12: Y20A6, anti-human VEGF165 single domain heavy chain antibody clone displayed on yeast (VHH, not shown: large carriers; small tags and cut ends)
VHH: B9 VHH

Target: T1, Biotinylated Human VEGF165 (ACROBiosystems, Cat. No. VE5-H82Q0) (human, UniProt P15692-4 27-191, biotinylated (site not stated))
T1 construct: Bought reagent; also called Human VEGF-Bio; human VEGF165-Bio
T1 sequence (P15692 other isoform, or with tags, fused parts or gaps limits assumed): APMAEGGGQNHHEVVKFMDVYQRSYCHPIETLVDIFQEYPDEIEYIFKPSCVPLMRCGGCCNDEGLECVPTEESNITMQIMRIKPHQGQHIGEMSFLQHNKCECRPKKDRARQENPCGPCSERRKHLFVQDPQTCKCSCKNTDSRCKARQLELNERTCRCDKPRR
Test: BLI (Octet RED96e), method of Example 4, antibody on AHC sensor
Description: (§1) The antigen and antibody were both diluted with 1×PBST (1×PBS: Sango Biotech, B548117-0500; 0.02% Tween 20: sigma-alorich, P1379), the antigen was used at a concentration of 100 nM, and the antibody was used at a concentration of 50 nM.
(§2) (2) On-board detection of samples (Octet Data Acquisition 11.1.0.11): First, the samples were added to a 96-well plate (Greiner bio-one, 655209), and the system was 200 μL/well. Then the software parameters were set, the plate temperature was set to be 30° C., and the frequency of collecting the standard kinetic signal was 5.0 Hz. Next, the AHC sensor (Fortébio, Cat. No.: 18-0015) was pre-wetted with 1×PBST for 10 minutes, and then detected on the machine. Each cycle consists of the following steps: 1) immersion in the buffer for 60 seconds; 2) detection of whether there is a non-specific binding between antigen and sensor; 3) regeneration of 10 mM glycine solution with pH 1.7; 4) immersion in the buffer for 60 seconds; 5) immobilization of the antibody on the sensor for a time of 20 seconds; 6) immersion of the sensor in the buffer for 180 seconds; 7) binding of the antigen to the antibody for a time of 180 seconds; 8) dissociation of the antigen and the antibody for 10 minutes; 9) sensor regeneration.

| Response value | Binder |
| --- | --- |
| 0.142 | B1 |
| 0.116 | B2 |
| 0.153 | B3 |
| 0.154 | B4 |

Target: T1, Biotinylated Human VEGF165 …
Test: flow cytometry, yeast-displayed clone, 1 nM Human VEGF165-Biotin

| Binding MFI [MFI] | Binder |
| --- | --- |
| 42.1 | B5 |
| 503 | B6 |
| 337 | B7 |
| 358 | B8 |

Target: T1, Biotinylated Human VEGF165 …
Test: BLI (Octet RED96e), antibody captured on AHC sensor, 100 nM VEGF165
Description: as §1, §2

| Response value | Binder |
| --- | --- |
| 0.442 | B9 |

Target: T1, Biotinylated Human VEGF165 …
Test: BLI (Octet RED96e), method of Example 4, antibody on AHC sensor, 1:1 fit
Description: as §1, §2

| Kd [nM] | koff [s⁻¹] | kon [M⁻¹ s⁻¹] | Binder |
| --- | --- | --- | --- |
| 2.23 | 0.00403 | 1.81e+06 | B1 |
| 0.728 | 0.00104 | 1.43e+06 | B2 |
| 0.626 | 0.000857 | 1.37e+06 | B3 |
| 0.413 | 0.00051 | 1.24e+06 | B4 |

Target: T1, Biotinylated Human VEGF165 …
Test: BLI (Octet RED96e), antibody captured on AHC sensor, 100 nM VEGF165, 1:1 fit
Description: as §1, §2
Fortebio's Data Analysis 11.0 software was used to measure the binding rate (Ka) and dissociation rate (Kd) of the antigen-antibody in a 1:1 binding mode, and then the equilibrium dissociation constant (KD) of the antibody was calculated.

| Kd [nM] | koff [s⁻¹] | kon [M⁻¹ s⁻¹] | Binder |
| --- | --- | --- | --- |
| 6.3 | 0.00888 | 1.41e+06 | B9 |
| 9.91 | 0.0181 | 1.82e+06 | B10 |
| 10.5 | 0.0184 | 1.75e+06 | B11 |

Target: T1, Biotinylated Human VEGF165 …
Test: flow cytometry, yeast-displayed clone, 1 nM Human VEGF165-Biotin; ratio of binding MFI and displaying MFI

| Binding force | Binder |
| --- | --- |
| 11.7 | B5 |
| 114 | B6 |
| 98.2 | B7 |
| 129 | B8 |

Target: irrelevant antigen
Test: flow cytometry, yeast-displayed VHH, 10 nM irrelevant antigen, streptavidin-PE (Protocol 3, non-specific binding level)

| Irrelevant antigen binding signal (PE MFI) [MFI] | Binder |
| --- | --- |
| 21.8 | B12 |

Target: T1, Biotinylated Human VEGF165 …
Test: competitive ELISA: antibody titrated with biotinylated human VEGF165 on coated human VEGFR2, SA-HRP, OD450; blocked interaction VEGF165-VEGFR2
Description: (§3) A competitive ELISA method was used to determine the activity of the single domain antibody in blocking the binding of VEGF165 to human VEGFR2. […] The next day, the plate was washed 3 times with washing solution PBST (0.05% TWEEN-20: sigma-alorich, P1379), and then the blocking solution PBST+2% BSA (BSA: VWR, 0332-1 KG) was prepared using the washing solution, with 300 μL of blocking solution added to each well, blocked at 37° C. for 1 hour. […] The plate was washed three times with the washing solution, the secondary antibody SA-HRP (sigma, S2438) was diluted 1:5000 with the blocking solution, added to the ELISA plate according to 100 μL/well, and incubated at 37° C. for 1 hour. The plate was washed 3 times with the washing solution, 100 μL of TMB chromogenic solution (Biopanda, Cat. No.: TMB-S-003) were added to each well, and developed color at room temperature in the dark, and then 50 μL of stop solution (Solarbio, Cat. No.: C1058) were added to each well to stop the reaction, and the absorbance was measured at a wavelength of 450 nm.

| IC50 [µg/mL] | Binder |
| --- | --- |
| 0.516 | B9 |
| 4.67 | B10 |
| 4.18 | B11 |

Target: T1, Biotinylated Human VEGF165 …
Test: competitive ELISA: antibody titrated with biotinylated human VEGF165 (formulated at 700 ng/ml) on coated human VEGFR2, SA-HRP, OD450; blocked interaction VEGF165-VEGFR2
Description: as §3

| IC50 [µg/mL] | Binder |
| --- | --- |
| 0.88 | B1 |
| 1.24 | B2 |
| 0.623 | B3 |
| 0.42 | B4 |
